Source: paper PMC3814370, “Functional assignment of KEOPS/EKC complex subunits in the biosynthesis of the universal t^6A tRNA modification” (Nucleic Acids Research, 2013)
Blank lines part the entries; values can stand above or below the substance they belong to.

Tests used:
[1] = tested on: Kae1-Bud32 (Pyrococcus abyssi); experiment: EMSA; conditions: apparent Kd; retarded bands from 50 nM; EMSA: 10 nM 32P-tRNA, 20 µl binding buffer BB (composition not in material), 15 min at 4 C (Figure 7 legend: room temperature), 10% native gel in 1X TGE at 4 C
[2] = target: Pcc1–Kae1 binary complex from Pyrococcus abyssi (Pyrococcus abyssi) (UniProt Q9V1Z9)
Sequence of Pcc1–Kae1 binary complex from Pyrococcus abyssi (Pyrococcus abyssi) (Q9V1Z9 whole entry, chain 1 of 2): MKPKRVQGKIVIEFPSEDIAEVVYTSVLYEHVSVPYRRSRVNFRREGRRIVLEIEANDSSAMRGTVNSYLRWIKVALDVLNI
Sequence of Pcc1–Kae1 binary complex from Pyrococcus abyssi (Pyrococcus abyssi) (Q9UXT7 whole entry, chain 2 of 2, further chain): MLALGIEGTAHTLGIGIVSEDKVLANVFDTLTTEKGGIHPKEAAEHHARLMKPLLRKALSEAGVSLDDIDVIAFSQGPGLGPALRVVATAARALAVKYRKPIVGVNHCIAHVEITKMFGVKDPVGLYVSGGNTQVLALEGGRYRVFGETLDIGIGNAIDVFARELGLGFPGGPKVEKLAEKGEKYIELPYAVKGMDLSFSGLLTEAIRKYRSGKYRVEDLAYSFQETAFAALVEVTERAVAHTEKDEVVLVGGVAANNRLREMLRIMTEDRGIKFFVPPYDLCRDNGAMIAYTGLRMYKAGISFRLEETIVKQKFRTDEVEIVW

Substance: substrate tRNA (probably Ec_tRNALys)
- Kd [1]: 2000 nM

- t^6A synthesis (14C-L-threonine incorporated into tRNA) after adding Pcc1–Kae1 to the ternary complex, relative to PaKEOPS [2]: 36%
Substance: Kae1–Bud32–Cgi121 ternary complex from Pyrococcus abyssi (from UniProt Q9UXT7 1-324; Q9UYB9 1-220; Q9UZ62 1-171)

- t^6A synthesis (14C-L-threonine incorporated into tRNA) by a mix of the two binary complexes, relative to PaKEOPS [2]: 30%
Substance: Kae1–Bud32 binary complex from Pyrococcus abyssi (from UniProt Q9UXT7 1-324; Q9UYB9 1-220)
